Laboratory results reported in paper PMC2719696, “Kinetics and Cellular Site of Glycolipid Loading Control the Outcome of Natural Killer T Cell Activation” (Immunity, 2009).

T1: mCD1d (Mus musculus, UniProt P11609)
T1 sequence (P11609 22-305 limits assumed): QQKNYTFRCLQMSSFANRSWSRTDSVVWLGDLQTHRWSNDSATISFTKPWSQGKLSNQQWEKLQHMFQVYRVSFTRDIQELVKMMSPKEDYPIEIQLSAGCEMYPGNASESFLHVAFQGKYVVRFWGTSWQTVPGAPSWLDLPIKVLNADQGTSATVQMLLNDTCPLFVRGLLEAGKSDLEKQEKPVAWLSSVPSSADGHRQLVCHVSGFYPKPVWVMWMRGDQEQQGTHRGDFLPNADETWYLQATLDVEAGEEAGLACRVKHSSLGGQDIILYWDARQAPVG
T1 sequence (P01887 21-119 partner): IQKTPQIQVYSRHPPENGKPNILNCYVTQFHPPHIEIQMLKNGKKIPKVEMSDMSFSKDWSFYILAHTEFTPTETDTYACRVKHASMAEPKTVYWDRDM


Columns and labels:
[1] = tested on: iNKT cells; assay: In vivo activation of iNKT cells by i.p. glycolipid injection; serum cytokines by capture ELISA; conditions: C57BL/6 mice, i.p. 4 nmoles
From the text: (§1) Figure 1 Synthetic Analogs of αGalCer (A) Structures and nomenclature of iNKT cell-activating αGalCer analogs used in this study. The nomenclature used in most cases is based on the identity of the amide-linked acyl group in the ceramide moiety. Acyl carbon chain length and number of unsaturations are indicated by the names of most analogs, with exceptions being OCH (which has a C24 saturated acyl chain) and the compounds with amide-linked prostaglandin B1 (PGB1) or 4-fluorophenyl acetate (4FPA) groups. The phytosphingosine base is 18 carbons in length for all analogs except OCH, which has a nine-carbon base. (B) Hybridoma DN3A4.1-2 (Vβ8.2^+) was stimulated with each of the αGalCer analogs at a range of concentrations with JAWS II cells as APCs, and the amounts of IL-2 production were analyzed. Potencies of glycolipids are shown as 1/EC50 (as defined in Figure S1). […] Concentrations of IFN-γ, IL-4, and IL-12p70 were determined in serum by capture ELISA. “ND” stands for not detected. […]
(§2) For in vitro stimulation, murine iNKT hybridomas at 5 × 10^4 cells/well in 96-well plates were stimulated with an equal number of either JAWS II cells or transfected A20 cells in complete medium with glycolipids for 12 hr at 37°C, and levels of murine IL-2 secretion were determined. […] Subsequently the levels of IL-4, IL-13, and IFN-γ in culture supernatants were quantified by capture ELISA. […]

[2] = tested on: BALB/c splenocytes; assay: Mouse splenocyte stimulation with glycolipids, IL-4, IL-13 and IFN-γ in supernatants; type: cell-based; conditions: 48 hr
From the text: as §1, §2

[3] = biological target: T1, mCD1d; assay: In vitro CD1d loading assay with immobilized mCD1d, saposins or Triton X-100, DN32.D3 hybridoma IL-2 readout; type: biochemical; conditions: saposin 10 μg/ml, glycolipid αGalCer-C26:0
Procedure: Figure 5 Lack of Detergent-like Cofactor Dependence of Th2 Cell-Type Cytokine-Biasing αGalCer Analogs (A) Glycolipids were incubated for 24 hr at 37°C with murine CD1d proteins in the absence (top row) or presence (bottom row) of 0.05% Triton X-100. The resulting complexes were assembled as tetramers and used for staining mouse iNKT hybridoma DN3A4.1-2. The dashed line histograms show background staining with unloaded tetramers, and the bold histograms show staining with glycolipid loaded tetramers. (B) The same analysis as in (A) except with human CD1d tetramers, which were also used for DN3A4.1-2 staining. (C) Glycolipids at various concentrations were incubated with immobilized mCD1d protein for 2 hr in pH 7.0 or pH 5.0 buffers with no additives (medium) or in the same buffers containing the indicated purified recombinant saposins (10 μg/ml) or Triton X-100 (0.05%). After washing, DN32.D3 iNKT hybridoma cells were added and supernatant concentrations of IL-2 were determined after an additional 14 hr of incubation. All results shown (A, B, and C) were representative of at least two independent experiments.
To extend these observations to a more physiological model, we tested the effects of purified recombinant saposin A, B, C, and D proteins on loading of αGalCer analogs.
Recombinant murine CD1d proteins at 4 μg/ml in 50 μl PBS were coated on the surfaces of microtiter plate wells for 2 hr at 37°C and then washed with PBS for removal of unbound proteins. Subsequently, various concentrations of glycolipids in 0.1 M sodium phosphate buffer (pH 7.0) or 0.1 M sodium citrate buffer (pH 5.0) containing 150 mM NaCl were incubated with or without 0.05% Triton X-100 or recombinant purified human saposins A, B, C, or D at 10 μg/ml for another 2 hr at 37°C. Saposins were produced and purified as described ([Yuan et al., 2007]). After extensive washing with PBS and media, 5 × 10^4 murine iNKT hybridoma DN32.D3 cells were added in 200 μl of complete medium and incubated at 37°C for 14 hr. Supernatants were analyzed for murine IL-2 by capture ELISA.

Molecule	activity in vivo (serum cytokines) [1]	Th2 cell-type cytokine bias (ratios of IL-13 or IL-4 to IFN-γ) [2]	activity of purified saposin in enabling loading of αGalCer-C26:0 onto mCD1d [3]
CCCCCCCCCCCCCCC(O)C(O)C(COC1OC(CO)C(O)C(O)C1O)NC(=O)Cc1ccc(F)cc1 (stereo not drawn) [αGalCer-4FPA]	minimal activity in vivo	pronounced Th2 cell-type biasing effect in vitro	–
saposin C: recombinant purified human saposin C (protein, UniProt P07602 311-390, looked up, Saposin-C) Saposin-C: SDVYCEVCEFLVKEVTKLIDNNKTEKEILDAFDKMCSKLPKSLSEECQEVVDTYGSSILSILLEEVSPELVCSMLHLCSG	–	–	minimal or no activity
saposin A: recombinant purified human saposin A (protein, UniProt P07602 60-142, looked up, Saposin-A) Saposin-A: SLPCDICKDVVTAAGDMLKDNATEEEILVYLEKTCDWLPKPNMSASCKEIVDSYLPVILDIIKGEMSRPGEVCSALNLCESLQ	–	–	minimal or no activity
saposin D: recombinant purified human saposin D (protein, UniProt P07602 405-486, looked up, Saposin-D) Saposin-D: DGGFCEVCKKLVGYLDRNLEKNSTKQEILAALEKGCSFLPDPYQKQCDQFVAEYEPVLIEILVEVMDPSFVCLKIGACPSAH	–	–	minimal or no activity
Saposin B: recombinant purified human saposin B, lipid transfer protein (protein, UniProt P07602 195-273, looked up, Saposin-B, recombinant purified human saposin B, lipid transfer protein) Saposin-B: GDVCQDCIQMVTDIQTAVRTNSTFVQALVEHVKEECDRLGPGMADICKNYISQYSEIAIQMMMHMQPKEICALVGFCDE	–	–	strongly active
